Data taken from patent publication US20220372120A1 (GEMINI THERAPEUTICS SUB, published 2022).
Substitutions are numbered along the chain they refer to. Several values for one entry are separate records, joined by “and”; a condition that tells them apart may be missing. Equal values may be shown once.

B1: Antibody 1 (antibody, V domains shown)
VH: QVQLQESGPGLVKPSQTLSLTCTVSGFSLTNYGVYWIRQHPGKGLEWIGVVWSGGTTEFNPSLKSRVTISKDTSKNQVSLKLSSVTAADTAVYYCARNFGNYAMDYWGQGTSVTVSS
VL: DIQLTQSPSSLSASVGDRVTITCKASSSVTYLHWYQQKPGKAPKPLIYATSNLASGVPSRFSGSGSGTDFTLTISSLQPEDFATYYCQHRSSSNPLTFGAGTKLELK
B2: Antibody 3 (antibody, V domains shown)
VH: B1 VH
VL: B1 VL with K24R, S27T, L32M, T50S
B3: Antibody 2 (antibody, V domains shown)
VH: B1 VH with V51I, F59Y, L63M, Y106F
VL: B1 VL
B4: Antibody 4 (antibody, V domains shown)
VH: B1 VH with V51I, F59Y, L63M, Y106F
VL: B1 VL with K24R, S27T, L32M, T50S
B5: FHR-1.3B4 (antibody, V domains shown)
VH: QVQLRQSGPGLVQPSQSLSITCTVSGFSLTNYGVYWVRQSPGKGLEWLGVIWSGGTTDYSAAFISRLSISKDNSKSQVFFKMNSLQADDTAIYYCARNFGNYAMDYWGQGTSVTVSS
VL: QIVLSQSPTILSASPGEKVTMTCRASSSVTYMHWYQQKPGSSPKPWIYATSNLASGVPARFSGSGSGTSYSLTISRVEAEDAATYYCQQRSSSNPLTFGAGTKLELK
notes: Mouse monoclonal antibody raised in BALB/c mice against recombinant human FHR-1 (hybridoma); kappa light chain implied by capture on rat anti-mouse kappa RM19; also called anti-FHR-1.3B4; anti-FHR-1 3B4

target: T1, Human purified factor H (human, UniProt P08603 19-1231); assay: cell-based or functional assay
T1 sequence (P08603 19-1231): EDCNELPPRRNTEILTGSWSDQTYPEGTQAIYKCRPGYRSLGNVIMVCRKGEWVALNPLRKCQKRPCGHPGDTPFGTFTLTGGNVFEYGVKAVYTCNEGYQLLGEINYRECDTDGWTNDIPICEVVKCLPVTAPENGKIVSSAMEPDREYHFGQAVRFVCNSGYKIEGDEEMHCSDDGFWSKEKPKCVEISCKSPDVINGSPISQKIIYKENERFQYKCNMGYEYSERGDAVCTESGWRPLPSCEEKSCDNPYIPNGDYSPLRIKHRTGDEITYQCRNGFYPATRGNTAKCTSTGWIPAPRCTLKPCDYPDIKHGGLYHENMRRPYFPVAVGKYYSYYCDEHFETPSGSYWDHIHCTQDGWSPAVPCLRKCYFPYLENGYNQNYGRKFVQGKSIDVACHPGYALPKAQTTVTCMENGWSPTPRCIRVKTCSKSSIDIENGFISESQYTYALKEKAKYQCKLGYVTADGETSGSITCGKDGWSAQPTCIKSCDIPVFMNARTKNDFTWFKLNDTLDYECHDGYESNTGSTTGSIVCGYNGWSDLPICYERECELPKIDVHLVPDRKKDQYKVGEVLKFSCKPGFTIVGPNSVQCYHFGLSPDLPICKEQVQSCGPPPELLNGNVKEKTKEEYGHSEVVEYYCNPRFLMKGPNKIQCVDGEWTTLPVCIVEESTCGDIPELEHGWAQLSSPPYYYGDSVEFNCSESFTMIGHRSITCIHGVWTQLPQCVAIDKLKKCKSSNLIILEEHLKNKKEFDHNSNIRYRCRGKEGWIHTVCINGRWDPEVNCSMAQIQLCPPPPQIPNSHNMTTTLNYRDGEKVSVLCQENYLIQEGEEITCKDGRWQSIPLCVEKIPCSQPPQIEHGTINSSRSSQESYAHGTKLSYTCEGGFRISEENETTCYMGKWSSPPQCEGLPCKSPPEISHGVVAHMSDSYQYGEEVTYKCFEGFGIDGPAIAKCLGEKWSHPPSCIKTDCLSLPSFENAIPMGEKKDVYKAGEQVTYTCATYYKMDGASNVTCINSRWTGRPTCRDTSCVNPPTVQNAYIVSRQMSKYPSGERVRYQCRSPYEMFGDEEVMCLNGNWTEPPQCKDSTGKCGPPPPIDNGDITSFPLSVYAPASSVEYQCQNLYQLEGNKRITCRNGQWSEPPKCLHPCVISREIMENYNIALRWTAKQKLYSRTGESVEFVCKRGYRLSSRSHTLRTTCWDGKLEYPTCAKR

| Molecule | IC50 of inhibition of C3b deposition on LPS, Replicate 1 | IC50 of inhibition of C3b deposition on LPS, Replicate 2 |
| --- | --- | --- |
| B1 | 3.5 µg/ml and 23.4 nM | 2.26 µg/ml and 15.1 nM |
| B2 | 4.14 µg/ml and 27.6 nM | 3.47 µg/ml and 23.1 nM |
| B3 | 3.68 µg/ml and 24.5 nM | 2.82 µg/ml and 18.8 nM |
| B4 | 4.34 µg/ml and 28.9 nM | 3.51 µg/ml and 23.4 nM |

target: T1, Human purified factor H; assay: SPR (BiaCore T200), antibody captured on Protein A or Protein G chip, full length FH flowed over
Protocol: To determine binding affinity of Antibodies 1-4, surface plasmon resonance (SPR) experiments were performed using a BiaCore T200 (GE Healthcare) and CMS sensor chips (GE Healthcare) in accordance with the manufacturer's instructions. Briefly, Antibodies […] or anti-FHR-1.3B4 were captured onto a Protein A or Protein G coupled chip and full length FH was flown over the captured moAB at decreasing concentrations.

| Molecule | Kd | koff | kon |
| --- | --- | --- | --- |
| B1 | 0.5 nM | 2.67e-05 s⁻¹ | 53800 M⁻¹ s⁻¹ |
| B2 | 0.85 nM | 4.07e-05 s⁻¹ | 48500 M⁻¹ s⁻¹ |
| B3 | 0.52 nM | 3.06e-05 s⁻¹ | 58500 M⁻¹ s⁻¹ |
| B4 | 0.58 nM | 3.14e-05 s⁻¹ | 55300 M⁻¹ s⁻¹ |
| B5 | 0.91 nM | 5.32e-05 s⁻¹ | 59500 M⁻¹ s⁻¹ |

target: T1, Human purified factor H; assay: cell-based or functional assay; remark: another data set of the same source

| Molecule | IC50 of inhibition of SRBC hemolysis, 10% human serum with anti-FH.09 |
| --- | --- |
| B1 | 10.6 ug/ml and 70.7 nM |
| B2 | 9.4 ug/ml and 62.7 nM |
| B3 | 10.1 ug/ml and 67.3 nM |
| B4 | 11.5 ug/ml and 76.7 nM |
| B5 | 11.4 ug/ml and 76 nM |

target: T1, Human purified factor H; assay: cell-based or functional assay; remark: another data set of the same source

| Molecule | IC50 of inhibition of SRBC hemolysis, first replicate | IC50 of inhibition of SRBC hemolysis, second replicate |
| --- | --- | --- |
| B1 | 10.7 µg/ml and 71.3 nM | 10.9 µg/ml and 72.7 nM |
| B2 | 11.1 µg/ml and 74 nM | 9.1 µg/ml and 60.7 nM |
| B3 | 11.4 µg/ml and 76.3 nM | 10.4 µg/ml and 69.3 nM |
| B4 | 11.5 µg/ml and 76.5 nM | 11.8 µg/ml and 78.5 nM |

target: T1, Human purified factor H; assay: cell-based or functional assay; remark: another data set of the same source

| Molecule | IC50 of inhibition of C3b deposition on LPS, 10% normal human serum |
| --- | --- |
| B1 | 2.26 µg/ml and 15.1 nM |
| B2 | 3.47 µg/ml and 23.1 nM |
| B3 | 2.82 µg/ml and 18.8 nM |
| B4 | 3.51 µg/ml and 23.4 nM |
| B5 | 38 nM and 5.7 µg/ml |

target: purified C3b (Complement Technologies) (UniProt P01024); assay: SPR (Biacore T200, 37 C), C3b amine-coupled to chip, pdFH injected alone, equilibrium analysis

| Molecule | Kd |
| --- | --- |
| Human purified factor H (from UniProt P08603 19-1231) | 1300 nM |
